In patent publication US20190177416A1 (NANOMAB TECHNOLOGY, published 2019):
Where a chain is given by its changes, count along the chain named.

T1: PD-L2 (coated antigenic protein) (UniProt Q9BQ51 20-220, limits assumed)
T1 sequence (looked up): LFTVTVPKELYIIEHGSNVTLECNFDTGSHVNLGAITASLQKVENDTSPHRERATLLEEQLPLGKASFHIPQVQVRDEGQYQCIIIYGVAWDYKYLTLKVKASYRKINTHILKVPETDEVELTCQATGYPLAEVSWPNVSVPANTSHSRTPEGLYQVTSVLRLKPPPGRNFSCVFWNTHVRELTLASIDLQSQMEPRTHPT

B1: SEQ ID NO 6 (VHH)
VHH: QVQLQESGGGSVQAGETLRLSCTASGDTFDASGVGWFRQVSGNECDLVSSINRDGTTYYAPSVAGRFTMSQNNAKNTVYLQMNSLKPDDTAVYYCATDPAVGIVVRSTCRGPFGYWGQGTQVTVSS
notes: pMECS-expressed; also called anti-PD-L1 nanobody No. 6; VHH numbered 6
B2: SEQ ID NO 11 (VHH)
VHH: B1 VHH with A31D, M69I, D98V, S107I
notes: pMECS-expressed; also called anti-PD-L1 nanobody No. 11; VHH numbered 11
B3: SEQ ID NO 12 (VHH)
VHH: QVQLQESGGGSVQAGGSLRLSCAASGYTRSSHCMVWFRQAPGKEREGVALIYTGSGSTYYADSVKGRFTISQDNAKKTLYLQMNSLKPEDTAMYYCAAGTSSSSCPGLLGPPRYYNWGQGTQVTVSS
notes: pMECS-expressed; also called anti-PD-L1 nanobody No. 12; VHH numbered 12
B4: SEQ ID NO 2 (VHH)
VHH: QVQLQESGGGSVQAGGSLRLSCAVSRYSASNNVIKWMGWFRQAPGKEREGVAALYTSGGNTYYADSVKGRFTISRDYSENTVSLQMNNLKPEDTGMYYCATTVGTVLAGPLSARKYNYWGQGTQVTVSS
notes: pMECS-expressed; also called anti-PD-L1 nanobody No. 2; VHH numbered 2
B5: SEQ ID NO 3 (VHH)
VHH: QVQLQESGGGSVQTGGSLRLSCAASTSLYSYNYMAWFSQAPGKGREGVAAVYVGDGRPYYADSVKGRFTISLDSAKNAVYLQMNSLKPEDTAMYYCAAAPGPLSHNYWYTSANYDYWGQGTQVTVSS
notes: pMECS-expressed; also called anti-PD-L1 nanobody No. 3; VHH numbered 3
B6: SEQ ID NO 5 (VHH)
VHH: B5 VHH with L28I, Y31N, V53I, G54D, A78T, S85G, H105R
notes: pMECS-expressed; also called anti-PD-L1 nanobody No. 5; VHH numbered 5
B7: SEQ ID NO 7 (VHH)
VHH: B5 VHH with A24C, L28I, Y31T, V53I, A78T, H105R
notes: pMECS-expressed; also called anti-PD-L1 nanobody No. 7; VHH numbered 7
B8: SEQ ID NO 4 (VHH)
VHH: B5 VHH with T26P, L28I, Y31A, V53I, A78T, S104G
notes: pMECS-expressed; also called anti-PD-L1 nanobody No. 4; VHH numbered 4
B9: SEQ ID NO 9 (VHH)
VHH: QVQLQESGGGSVQAGGSLRLSCAASGYTYSNDGMGWFRQIPGKEREGVAAISPTGRRTEYADSVQGRFTISRDNAKNMLSLQMNSLKPEDTGMYYCAREGSGSFSLQNSAVRSWGQGTQVTVSS
notes: pMECS-expressed; also called anti-PD-L1 nanobody No. 9; VHH numbered 9
B10: SEQ ID NO 10 (VHH)
VHH: QVQLQESGGGSVQAGGSLRLSCTAPGFTSKTCAMRWYRQAPGKEREFVSAISTVGTTTYADSVKGRFIISKDEAKDTVYLQINSLKPEDTAMYSCKTFACRHCIGQSCRTEPDYWGQGTQVTVSS
notes: pMECS-expressed; also called anti-PD-L1 nanobody No. 10; VHH numbered 10
B11: SEQ ID NO 8 (VHH)
VHH: QVQLQESGGDSVQAGGSLRLACKVPGFTSNTCAMAWFRQAPGKEREFVSSISTGGTTGYAESAKGRFTLSKDEAKDTVYLQMNSLKPEDTAMYFCKSYACRTCIGRYCRTAPDAWGQGTQVTVSS
notes: pMECS-expressed; also called anti-PD-L1 nanobody No. 8; VHH numbered 8
B12: SEQ ID NO 148 (VHH)
VHH: QVQLQESGGGSVQAGGSLRLSCAASGYSYNIDYMAWFRQAPGKEREGVAAIYTGSRRTYYSDSVKGRFAISQDNADNTVYLQMNALKPEDTAMYFCAALVSRPGRSWDKNEYRYWGQGTQVTVSS
notes: pMECS-expressed; also called VHH numbered 148
B13: SEQ ID NO 150 (VHH)
VHH: QVQLQESGGGLVQPGGSLRLSCAASGFTFSAYGMSWVRQAPGKGFEWVSTINSGGGTTFYADSVKGRFTISRDNAKNTLYLQLNSLRTEDTAMYYCRRCADIYCSLSGGWTGQGTQVTVSS
notes: pMECS-expressed; also called VHH numbered 150
B14: SEQ ID NO 142 (VHH)
VHH: B4 VHH with A14T, T101A
notes: pMECS-expressed; also called VHH numbered 142
B15: SEQ ID NO 141 (VHH)
VHH: QVQLQESGGGSVQAGGSLRLSCTAPGFTSNTCAMAWFRQAPGKEREFVSSMSTVGSTRFADSVKGRFTISKDEAKDTVYLQMNSLKPEDTAMYFCKTYACRECTGRYCRTAPDAWGQGTQVTVSS
notes: pMECS-expressed; also called VHH numbered 141
B16: SEQ ID NO 143 (VHH)
VHH: B15 VHH with F37Y, M51I, G55R, S56T, R58A, F59Y, D76A, T97S, E102D, T104I
notes: pMECS-expressed; also called VHH numbered 143
B17: SEQ ID NO 149 (VHH)
VHH: QVQLQESGGGLVQAGGSLRLSCTASGFTFDDYSMGWFRQAPGKEREGISCIDWSGGRTNYGDSVKGRFTISRDNAKNTLYLQMNSLKPEDTAMYYCAANSAYSSCSLSTTHYKYWGQGTQVTVSS
notes: pMECS-expressed; also called VHH numbered 149
B18: SEQ ID NO 139 (VHH)
VHH: QVQLQESGGGSVQAGGSLRLSCVASGYTNCRYDMSWYRQAPGKEREFVSSIDSEGVARHADSVKGRFGISQDNAKSTLYLQMNSLKPEDTAVYYCKTDYITCRFGSWSDSTWGQGTQVTVSS
notes: pMECS-expressed; also called VHH numbered 139
B19: SEQ ID NO 140 (VHH)
VHH: B18 VHH with V92M, T97M, T101R, D109E
notes: pMECS-expressed; also called VHH numbered 140
B20: SEQ ID NO 147 (VHH)
VHH: QVQLQESGGGSVQAGGSLRLSCAASGYTSRPNFMVWFRQAPGKEREAVAGIYTVTGGTLYSDPVKGRFTISQDKAKNTVYLQMNSLNPEDTAMYYCAVKWYGGSWSDAATFRTWGRGTQVTVSS
notes: pMECS-expressed; also called VHH numbered 147
B21: SEQ ID NO 144 (VHH)
VHH: QVQLQESGGGSVQAGQSLRLSCTASGYTDSRYCMGWFRQAPGKERERVTTIHTGTGITYYADSVKGRFSISQDNAQNTMYLQMNSLEPEDTAMYYCATTDYVYSASASWCNGYGVFNNWGQGTQVTVSS
notes: pMECS-expressed; also called VHH numbered 144

Biological target: T2, human PD-L1 protein (coated antigen) (human, UniProt Q9NZQ7 19-238, limits assumed)
T2 construct: Construct not described; also called PD-L1 antigen; antigenic protein PD-L1
T2 sequence (Q9NZQ7 19-238 limits assumed): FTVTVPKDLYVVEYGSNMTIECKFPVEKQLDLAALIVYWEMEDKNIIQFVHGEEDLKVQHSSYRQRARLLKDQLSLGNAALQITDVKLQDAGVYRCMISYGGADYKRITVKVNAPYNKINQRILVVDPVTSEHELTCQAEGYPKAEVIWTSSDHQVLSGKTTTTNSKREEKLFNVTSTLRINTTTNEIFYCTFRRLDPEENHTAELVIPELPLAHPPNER
Assay: ELISA, purified nanobody 10 ug/mL, coated PD-L1 against coated PD-L2
Procedure: (§1) (1) Coated antigenic proteins PD-L1 and PD-L2: 0.5 μg per well (5 μg/mL, 100 μL), packaged NaHCO₃ (100 mM, pH8.2) was used as a blank control and overnight at 4° C. (2) Wash the cells three times with PBST the next day, add 200 μL of 1% BSA to block at room temperature for 2 hours. (3) Each purified nanobody was diluted to 10 μg/mL, and 100 pt of each of the purified nanobodies was incubated with the coated PD-L1, PD-L2 and the blank control group, and reacted at room temperature for 1 hour. (4) Unbound antibody was washed away with PBST, and 100 μL of mouse anti-HA tag antibody (1:2000 dilution) was added and placed at room temperature for 1 hour. (5) Unbound antibody was washed away with PBST, and anti-mouse alkaline phosphatase conjugate (1:2000 dilution) was added and placed at room temperature for 1 hour. (6) Wash the unbound antibody with PBST, add alkaline phosphatase coloring solution, and read the absorbance at 405 nm on an ELISA apparatus. The specificity of the nanobody was judged based on the absorption value.

OD ratio (PD-L1/PD-L2) | Binder
29.9 | B1
25 | B2
23.9 | B3
31.8 | B4
21 | B5
26.4 | B6
29.5 | B7
25.6 | B8
27.2 | B9
28.6 | B10
25.3 | B11

Biological target: T2, human PD-L1 protein (coated antigen)
Assay: ELISA, purified nanobody 10 ug/mL on coated PD-L1, anti-HA detection
Procedure: as §1

ELISA absorbance (A405 nm) | Binder
3.44 | B1
2.9 | B2
2.99 | B3
3.63 | B4
2.36 | B5
3.38 | B6
3.51 | B7
3.51 | B8
3.56 | B9
3.34 | B10
3.37 | B11

Biological target: T2, human PD-L1 protein (coated antigen)
Assay: PE-ELISA, crude extract on coated PD-L1
Procedure: (1) From the cell culture dishes containing phage after 3-4 rounds of screening in Example 2, 1000 individual colonies were selected and inoculated into TB medium containing 100 μg/ml of ampicillin (1 liter of TB medium contains 2.3 g of potassium dihydrogen phosphate, 12.52 g of dipotassium hydrogen phosphate, 12 g of peptone, 24 g of yeast extract, 4 ml of glycerol), after growth to log phase, add a final concentration of […] of IPTG, culture at 28° C. overnight. (2) The crude antibody was obtained by the infiltration method, and the antibody was transferred to an antigen-coated ELISA plate and placed at room temperature for 1 hour. (3) Unbound antibody was washed away with PBST, and a mouse anti-HA tag antibody (anti-mouse anti-HA antibody, purchased from Beijing Kangwei Century Biotechnology Co., Ltd.) was added and placed at room temperature for 1 hour. (4) Unbound antibody was washed away with PBST, and anti-mouse alkaline phosphatase conjugate (goat anti-mouse alkaline phosphatase-labeled antibody, purchased from Amytech Co., Ltd.) was added and placed at room temperature for 1 hour. (5) Wash the unbound antibody with PBST, add alkaline phosphatase coloring solution, and read the absorbance at 405 nm on an ELISA apparatus. (6) When the OD value of the sample well is more than 3 times the OD value of the control well (Ratio+/−>3), it is judged as a positive clone hole. (7) The bacteria of the positive clone well were shaken in a LB liquid containing 100 μg per ml to extract a plasmid and perform sequencing.

OD ratio (experimental group (A405 nm)/control group (A405 nm)) | Binder
> 20 | B1
> 20 | B2
> 20 | B3
> 20 | B4
> 20 | B5
> 20 | B6
> 20 | B7
> 20 | B8
> 20 | B9
> 20 | B10
> 20 | B11

Biological target: T2, human PD-L1 protein (coated antigen)
Assay: PE-ELISA on coated PD-L1

binding result | Binder
binds | B12
binds | B13
binds | B14
binds | B15
binds | B16
binds | B17
binds | B18
binds | B19
binds | B20
binds | B21

Biological target: T1, PD-L2 (coated antigenic protein)
Assay: ELISA, purified nanobody 10 ug/mL on coated PD-L2, anti-HA detection
Procedure: as §1

ELISA absorbance (A405 nm) | Binder
0.115 | B1
0.116 | B2
0.125 | B3
0.114 | B4
0.112 | B5
0.128 | B6
0.119 | B7
0.137 | B8
0.131 | B9
0.117 | B10
0.133 | B11
